Assay results: US20200283521A1 (GRANULAR THERAPEUTICS, published 2020)

Legend:
Test in all cases: cell array, transfected fixed HEK293 cells
ZG16B = biological target: T1, ZG16B (human, UniProt Q96DA0)
T1 construct: expressed in transfected HEK293 cells
T1 sequence (looked up): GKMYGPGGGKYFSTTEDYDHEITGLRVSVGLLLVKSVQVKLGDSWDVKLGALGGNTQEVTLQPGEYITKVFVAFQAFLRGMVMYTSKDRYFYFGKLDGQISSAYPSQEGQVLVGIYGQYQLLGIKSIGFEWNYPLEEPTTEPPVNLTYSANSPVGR
Method: (§1) Transfection of all plasmids was confirmed by screening for the co-encoded marker ZS green (FIG. 13A).
(§2) Primary hits (duplicate spots) were identified by analysing fluorescence (AF647 and ZsGreenl) on ImageQuant. Vectors encoding all hits were sequenced to confirm their correct identities. […] Slides were analysed as above.

SLMAP = biological target: T2, SLMAP (human, UniProt Q14BN4)
T2 construct: expressed in transfected HEK293 cells
T2 sequence (looked up): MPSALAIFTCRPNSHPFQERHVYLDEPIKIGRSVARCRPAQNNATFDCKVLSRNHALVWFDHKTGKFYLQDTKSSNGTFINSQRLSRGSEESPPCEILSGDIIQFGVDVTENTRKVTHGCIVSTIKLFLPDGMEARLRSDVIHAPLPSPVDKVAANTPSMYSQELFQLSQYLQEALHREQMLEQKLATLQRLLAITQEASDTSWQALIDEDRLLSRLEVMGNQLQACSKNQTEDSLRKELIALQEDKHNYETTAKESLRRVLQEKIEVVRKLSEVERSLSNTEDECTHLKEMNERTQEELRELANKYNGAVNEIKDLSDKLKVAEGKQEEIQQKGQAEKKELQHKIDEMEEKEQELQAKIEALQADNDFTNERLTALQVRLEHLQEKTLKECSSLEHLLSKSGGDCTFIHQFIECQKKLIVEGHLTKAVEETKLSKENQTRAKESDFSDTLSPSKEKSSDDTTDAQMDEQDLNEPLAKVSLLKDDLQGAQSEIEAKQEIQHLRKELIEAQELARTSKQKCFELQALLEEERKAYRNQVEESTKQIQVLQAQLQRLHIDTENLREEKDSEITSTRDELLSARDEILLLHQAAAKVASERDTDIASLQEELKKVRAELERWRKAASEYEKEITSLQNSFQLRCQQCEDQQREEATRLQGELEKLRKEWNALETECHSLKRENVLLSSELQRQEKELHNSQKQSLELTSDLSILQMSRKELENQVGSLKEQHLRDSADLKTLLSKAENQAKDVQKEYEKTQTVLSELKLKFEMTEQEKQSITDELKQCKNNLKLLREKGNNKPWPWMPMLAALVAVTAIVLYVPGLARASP
Method: as §1, §2

BAIAP2L2 = biological target: T3, BAIAP2L2 (human, UniProt Q6UXY1)
T3 construct: expressed in transfected HEK293 cells
T3 sequence (looked up): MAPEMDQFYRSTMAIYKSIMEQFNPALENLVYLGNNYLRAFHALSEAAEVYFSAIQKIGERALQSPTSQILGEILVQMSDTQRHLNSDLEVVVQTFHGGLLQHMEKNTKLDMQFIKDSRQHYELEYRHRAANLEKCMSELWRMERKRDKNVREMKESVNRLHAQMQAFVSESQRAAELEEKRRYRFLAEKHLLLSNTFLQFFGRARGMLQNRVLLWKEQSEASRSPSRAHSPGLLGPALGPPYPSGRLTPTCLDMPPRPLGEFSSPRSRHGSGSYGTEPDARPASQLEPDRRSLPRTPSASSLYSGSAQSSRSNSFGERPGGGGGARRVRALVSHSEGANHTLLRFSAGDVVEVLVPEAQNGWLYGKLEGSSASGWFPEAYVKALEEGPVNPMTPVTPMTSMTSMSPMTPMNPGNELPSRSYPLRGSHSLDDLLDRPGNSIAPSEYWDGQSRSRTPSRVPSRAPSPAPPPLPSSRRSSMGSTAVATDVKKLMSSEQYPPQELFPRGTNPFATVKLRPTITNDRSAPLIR
Method: as §1, §2

EDN1 = biological target: T4, EDN1 (human, UniProt P05305)
T4 construct: expressed in transfected HEK293 cells
T4 sequence (looked up): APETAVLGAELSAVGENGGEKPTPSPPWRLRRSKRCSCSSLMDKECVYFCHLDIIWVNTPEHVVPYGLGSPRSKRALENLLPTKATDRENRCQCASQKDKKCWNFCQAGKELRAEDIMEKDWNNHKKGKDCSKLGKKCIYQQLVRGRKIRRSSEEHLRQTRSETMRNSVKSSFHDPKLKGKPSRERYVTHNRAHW
Method: as §1, §2

EDN2 = biological target: T5, EDN2 (human, UniProt P20800)
T5 construct: expressed in transfected HEK293 cells
T5 sequence (looked up): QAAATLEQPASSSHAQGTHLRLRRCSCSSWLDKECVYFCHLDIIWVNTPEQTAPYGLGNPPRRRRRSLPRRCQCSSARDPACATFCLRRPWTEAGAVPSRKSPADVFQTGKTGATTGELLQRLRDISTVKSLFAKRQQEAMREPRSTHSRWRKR
Method: as §1, §2

PSAPL1 = biological target: T6, PSAPL1 (human, UniProt Q6NUJ1)
T6 construct: expressed in transfected HEK293 cells
T6 sequence (looked up): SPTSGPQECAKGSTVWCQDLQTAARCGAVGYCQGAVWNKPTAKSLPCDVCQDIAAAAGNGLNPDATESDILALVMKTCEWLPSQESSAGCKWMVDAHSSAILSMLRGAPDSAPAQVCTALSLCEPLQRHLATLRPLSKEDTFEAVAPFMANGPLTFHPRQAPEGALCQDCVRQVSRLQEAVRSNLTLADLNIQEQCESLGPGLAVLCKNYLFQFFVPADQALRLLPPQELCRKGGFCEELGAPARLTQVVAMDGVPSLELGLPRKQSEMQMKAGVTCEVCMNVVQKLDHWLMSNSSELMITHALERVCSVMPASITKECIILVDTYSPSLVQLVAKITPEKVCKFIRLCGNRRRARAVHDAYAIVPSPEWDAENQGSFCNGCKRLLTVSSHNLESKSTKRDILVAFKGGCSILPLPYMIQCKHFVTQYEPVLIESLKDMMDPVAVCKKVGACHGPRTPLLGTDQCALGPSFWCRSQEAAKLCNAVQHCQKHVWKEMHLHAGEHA
Method: as §1, §2

Measured: binding result

B1: humanized h37M, human IgG1 (antibody, V domains shown)
VH: QVQLVQSGAEVKKPGASVKLSCKASGYTFTDYYINWVRQAPGKGLEWIARIYPGSGNTYYNEKFKGRATLTADKSTSTAYMQLSSLRSEDTAVYFCARGVYYFDYWGQGTTVTVSS
VL: DIVMTQSPSSLSASVGDRVTITCKASQNVRTNVAWYQQKPGKAPKALIYSASYRYSGVPDRFTGSGSGTDFTLTISSLQPEDFADYFCQQYNSYPRTFGGGTKVEIK
notes: human IgG1; terbium-labelled as the tracer of the HTRF assays; also called C-KIT-h37M; h37M-IgG1
no binding (tested: 2 µg/ml): ZG16B | SLMAP | BAIAP2L2 | EDN1 | EDN2 | PSAPL1
